This passage reports percent inhibition results from patent publication US20110262444A1.

The assay addresses rabbit polyclonal antibodies for Peptide 2 (CRNGDD, SEQ ID NO: 2). The experiment in a line: Western blot, inhibition of H6D antibody binding to CRNGDD-BSA by free peptide, 10 µg peptide/µl antiserum. On the technique in general: A western blot detects proteins with antibodies after separation by electrophoresis.

B1: CRNGDD (SEQ ID NO: 2) peptide, free (peptide)
peptide: CRNGDD
In turn, B1 displayed a percent inhibition of 81%.
